Columns and labels:
[1] = type: biochemical, Picrophilus torridus
Procedure: FIG. 2 is a graph which illustrates the effects of pH on the activity and stability of Picrophilus torridus trehalose synthase. The enzyme activities at various pH levels were examined at the maltose concentration of 150 mM and temperature of 45° C. for 25 min. The pH stability of Picrophilus torridus trehalose synthase enzyme was examined by measuring the residual activity of enzyme at pH 6.0 after pre-incubation in various pH levels at 45° C. for 20 min. The solid square (▪) and circle (●) notations indicate the enzyme activity under 50 mM sodium phosphate buffer (pH 6.0˜8.5) and 50 mM acetate buffer (pH 3.5˜6.0), respectively. The open square (□) and circle (◯) notations represent the pH stability under 50 mM sodium phosphate buffer (pH 6.0˜8.5) and 50 mM acetate buffer (pH 3.5˜6.0), respectively.
FIG. 3 is a graph which illustrates the effects of temperature on the activity and stability of Picrophilus torridus trehalose synthase. The enzyme activities at various temperatures were examined at the maltose concentration of 150 mM and pH 6.0 for 25 min. To examine temperature stability, the residual activity of the enzyme was measured at 45° C. after pre-incubation of the purified enzyme at different temperatures (4° C.˜100° C.) and pH 6.0 for 20 min. The solid circle (●) and open circle (◯) notations denote the enzyme activity and temperature stability, respectively, under various temperatures.
(§1) The activity of PTTS was assayed by measuring the amount of trehalose produced from maltose. The standard reaction was performed by adding 1.5 μL purified enzyme into 50 μL reaction solution containing 50 mM sodium phosphate (pH 6.0) and 150 mM maltose and incubating in a 45° C. water bath for 25 min. The assay time was under the linear range of enzyme reaction. The reaction was terminated by heating the mixture in boiling water for 15 min. One unit of enzyme activity was defined as the amount of enzyme that catalyzes the formation of 1 μmol of trehalose per min. Kinetic analysis was performed under conditions of pH 6.0 and 45° C. for 5 min in 50 mM sodium phosphate buffer containing substrate (maltose, trehalose, or maltose plus a constant 10 mM of glucose) at various concentrations. The resulting data were analyzed offline with Origin 6.0 software (Microcal, Northampton, Mass.). All experiments were carried out in duplicate or triplicate.
Effects of pH and Temperature on the Activity and Stability of Recombinant PTTS. The pH dependence of PTTS was studied at 45° C. in 50 mM acetate buffer (pH 3.5-6.0) or 50 mM phosphate buffer (pH 6.0-8.5) using 150 mM maltose as a substrate. […] The effects of temperature on PTTS activity and stability are depicted in FIG. 3. The optimum temperature was 45° C. and the enzyme maintained stability up to 60° C. at pH 6.0 for 20 min.

[2] = Enzyme assay: amount of trehalose produced from maltose by PTTS; type: biochemical, Picrophilus torridus
Procedure: as §1
(§2) The amount of trehalose, glucose, and maltose after each enzymatic reaction was measured using a high performance liquid chromatography (HPLC) (SFD 2100) system equipped with an RI detector (Schambeck S F D, RI 2000) at a flow rate of 0.9 mL/min. A carbohydrate analysis column (HYPERSIL-100 Amino, Thermo Hypersil-Keystone) equilibrated with 75% acetonitrile, 24% Milli-Q water, and 1% formic acid was used. The retention times of glucose, maltose, and trehalose were 8.0, 11.2, and 12.5 min, respectively.

[3] = Kinetic analysis of PTTS with maltose or trehalose as substrate; type: biochemical, Picrophilus torridus; settings: pH 6.0, 45° C., 5 min
Procedure: as §1
Kinetics Analysis. Kinetic parameters of PTTS were investigated at pH 6.0 and 45° C. for 5 min using maltose or trehalose as substrate (FIG. 7). […] This kinetic data is useful for determining the baseline activity of the enzyme and enables one of skill in the art to use this activity as a criterion for the isolation or construction of variants having substantially equivalent enzymatic activity.

[4] = Effects of substrate concentration and temperature on the maximum yield of trehalose; type: biochemical, Picrophilus torridus
Procedure: FIG. 4 is a graph which illustrates the effects of substrate concentration on the maximum yield of trehalose by Picrophilus torridus trehalose synthase. Purified enzyme was incubated with different concentrations of maltose in 50 mM sodium phosphate buffer (pH 6.0) at 45° C. Samples were collected at various intervals of reaction time and analyzed by HPLC. The symbols which indicated different concentrations of maltose are open square (□) 1 M; solid square (▪), 500 mM; solid triangle (▴), 250 mM; open rhombus (⋄), 150 mM, and open circle (◯), 50 mM.
FIG. 5 is a series of graphs illustrating the effects of temperature on the formation of trehalose (5A) and glucose (5B) from maltose (5C) by Picrophilus torridus trehalose synthase. Reaction mixtures containing purified Picrophilus torridus trehalose synthase, 150 mM maltose and pH 6.0 sodium phosphate buffer were incubated at various temperatures for 72 h. Samples were collected at various intervals and analyzed by HPLC. The symbols which indicated different reaction temperatures are open square (□) denoting temperature of 20° C.; solid square (▪) denoting temperature of 30° C.; solid triangle (▴) denoting temperature of 45° C.; and open triangle (Δ) denoting temperature of 0° C.
as §2
Effects of Substrate Concentration and Temperature on the Maximum Yield of Trehalose. The effects of the substrate concentration on the yield of trehalose by PTTS were examined at pH 6.0, 45° C., and various maltose concentrations. A maximum conversion was reached after 24 hour incubation for each reaction. The final yield of trehalose increased as the substrate concentration increased. […] Therefore, a higher maximum yield was gained at a lower temperature.

[5] = as above; type: biochemical, Picrophilus torridus; settings: 150 mM maltose, pH 6.0, 60° C., three days
[6] = 150 mM maltose, pH 6.0, 20° C., three days
[7] = 150 mM maltose, pH 6.0, 30° C., three days
[8] = 150 mM maltose, pH 6.0, 45° C., three days
[9] = 150 mM maltose, pH 6.0, 60° C., three days

B1: PTTS: recombinant Picrophilus torridus trehalose synthase with C-terminal linker and His(6)-tag (SEQ ID NO: 4), expressed in E. coli (protein, listed as Picrophilus torridus)
chain: MLDNNGLWYRDAVFYEVPVKSFYDSNNDGIGDFNGLTMKLDYLKKLGVDALWLLPFYKSPLKDDGYDISDYYSILPEYGTIDDFKNFIDTAHSMNIRVIADLVLNHVSDQHPWFIESRSSIDNPKRDWFIWSDTPEKFKEARIIFIDTEKSNWTYDPETKQYYFHRFYSSQPDLNYDNPDVRNEVKKVIRYWLDLGLDGFRADAVPYLFKRENTNCENLPETHNFFKEIRKMMDEDYPGTILLAEANQWPTETKAYFGNGDEFHMAFNFPLMPRIFIALARSDYYPIMDIIKQTLPIPDNCDWCIFLRNHDELTLEMVTDSERDIMYREYAKIPKMRLNLGIRRRLAPLADNDINTIELLNALIFSLPGTPIIYYGDEIGMGDNIYLGDRNGVRTPMQWSYDRNAGFSMADSEQLYSPVITNPNYHYESVNVEAELRLSSSLLNWMIKIIHVRKDYKELLGRGSIKFIEQGNKRVLSYIREYENQRMLCLFNLSRNPTYVELNLSDYIGLKPIEAITKAAFPRIKDDRYFITMTPRSFFWFNLIVPERDDSYDLIGEDANSRVDKLAAALEHHHHHH
[1]; 45° C., 150 mM maltose
  activity at pH 5.0: maintained high activity
[1]; 45° C., 150 mM maltose, acetate or phosphate buffer
  optimum pH: 6.0
[1]; pH 5.0
  activity maintained at pH 5.0: 80%
[1]; pH 6.0, 150 mM maltose
  optimum temperature: 45 °C
[2]; purified recombinant His-tag PTTS after Ni-column, 1 unit = 1 μmol trehalose per min
  specific activity: 80 units per mg of protein
[2]; recombinant PTTS, estimated
  specific activity toward maltose: about 80 units/mg protein
[2]; toward maltose
  specific activity as share of that of T. aquaticus trehalose synthase: about 60%
  specific activity relative to M. smegmatis trehalose synthase: about 2.8 fold
  specific activity relative to P. stutzeri CJ38 trehalose synthase: roughly equal
  specific activity relative to Pimelobacter trehalose synthase: about 4.7 fold
[3]
  enzyme efficiency (kcat/KM) toward maltose relative to trehalose: 2.5 fold
  kcat for trehalose relative to maltose: twofold higher
[4]; [6]
  glucose content: 3.6%
  maltose content: 25.4%
  maximum conversion of maltose into trehalose: 71%
[4]; [7]
  glucose content: 4.3%
  maltose content: 27.6%
  maximum conversion of maltose into trehalose: 68%
[4]; [8]
  glucose content: 7.8%
  maltose content: 31.2%
  maximum conversion of maltose into trehalose: 61%
[4]; [9]
  glucose content: 19.2%
  maltose content: 31.3%
[4]; pH 6.0, 45° C., each maltose concentration
  incubation time to reach maximum conversion: 24 h
[4]; pH 6.0, 45° C., various maltose concentrations (50 mM to 1 M)
  maximum conversion of maltose into trehalose: around 60%
[5]
  maximum conversion of maltose into trehalose: 50%

Source: US7927850B2, “Composition containing trehalose synthase and methods of use thereof” (Academia Sinica, priority 2006, dated 2011)
